Source: PMC6386982, “A Thermostable Monoacylglycerol Lipase from Marine Geobacillus sp. 12AMOR1: Biochemical Characterization and Mutagenesis Study” (International Journal of Molecular Sciences, 2019)

Experiments:
Assay in all cases: purified protein
Type in all cases: biochemical, Geobacillus sp. 12AMOR1
Settings in all cases: 20 mM Tris-HCl pH 8.0, 30 °C
[1] = tested on: T1, CCCC(=O)Oc1ccc([N+](=O)[O-])cc1
T1 construct: catalytic triad Ser97, Asp196, His226

[2] = tested on: T2, CCCCCCCC(=O)Oc1ccc([N+](=O)[O-])cc1
T2 construct: catalytic triad Ser97, Asp196, His226

[3] = tested on: T3, CCCCCC(=O)Oc1ccc([N+](=O)[O-])cc1
T3 construct: catalytic triad Ser97, Asp196, His226

| Substance | Km [1] [mM] | kcat [1] [s⁻¹] | kcat/Km [1] [M⁻¹ s⁻¹] | Km [2] [mM] | kcat [2] [s⁻¹] | kcat/Km [2] [M⁻¹ s⁻¹] | Km [3] [mM] | kcat [3] [s⁻¹] | kcat/Km [3] [M⁻¹ s⁻¹] |
| --- | --- | --- | --- | --- | --- | --- | --- | --- | --- |
| GMGL (Geobacillus sp. monoacylglycerol lipase) (Geobacillus sp. 12AMOR1) | 6.80 | 9.74 | 1430 | 2.83 | 2.58 | 910 | 4.06 | 4.31 | 1060 |
| GMGL (Geobacillus sp. monoacylglycerol lipase) (Geobacillus sp. 12AMOR1; L142A) | 14.78 | 15.9 | 1080 | 4.65 | 1.29 | 280 | 1.66 | 4.08 | 2460 |
| GMGL (Geobacillus sp. monoacylglycerol lipase) (Geobacillus sp. 12AMOR1; I170F) | 2.37 | 3.31 | 1210 | 4.63 | 2.08 | 450 | 1.60 | 3.67 | 2290 |
| GMGL (Geobacillus sp. monoacylglycerol lipase) (Geobacillus sp. 12AMOR1; I145A) | 9.56 | 3.25 | 340 | 8.32 | 0.95 | 110 | 1.34 | 2.02 | 1510 |
